Experimental data reported in US20220372138A1 (IOMX THERAPEUTICS, published 2022).
Where a chain is given by its changes, count along the chain named. Like-named read-outs stand apart in the source and are kept apart here.

Columns and labels:
[1] = biological target: T1, extracellular domain (ECD) of human IGSF11 (VSIG3), recombinant (human, UniProt Q5DX21 23-241); test: SPR
T1 construct: biotinylated where captured on streptavidin; tags of the reagent not always stated; also called IGSF11 (ECD domain); ECD-IGSF11
T1 sequence: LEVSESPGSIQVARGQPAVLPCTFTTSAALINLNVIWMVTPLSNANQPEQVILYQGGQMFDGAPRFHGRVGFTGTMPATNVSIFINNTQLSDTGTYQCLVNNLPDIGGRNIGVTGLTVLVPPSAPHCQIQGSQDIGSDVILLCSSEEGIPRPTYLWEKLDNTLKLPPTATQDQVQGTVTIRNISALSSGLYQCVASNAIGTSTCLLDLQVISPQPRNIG

[2] = biological target: T2, IgC2 domain of human IGSF11 fused to murine IgG2a Fc (human, UniProt Q5DX21 137-241); test: IgG ELISA
T2 construct: not shown: murine IgG2a Fc-region
T2 sequence: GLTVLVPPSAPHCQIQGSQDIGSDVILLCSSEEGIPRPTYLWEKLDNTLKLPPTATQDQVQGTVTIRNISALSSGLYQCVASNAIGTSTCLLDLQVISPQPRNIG

[3] = biological target: T3, full-length ECD of human IGSF11 fused to murine Fc (human, UniProt Q5DX21 23-241); test: IgG ELISA
T3 construct: also called Fc-fusion IGSF11 ECD; not shown: murine Fc
T3 sequence: T1 sequence

[4] = biological target: T4, human IGSF11 (VSIG3) ECD, His-tagged (human, UniProt Q5DX21 23-241); test: IgG1 ELISA EC50 <0.02 nM
T4 construct: in part bought (SinoBiological 13094-H08H); also called HIS-IGSF11; IGSF11-HIS; not shown: His tag
T4 sequence: T1 sequence

[5] = biological target: T5, human IGSF11 (VSIG3) expressed on cells (human, UniProt Q5DX21 23-431); test: FACS, DMS 273 cells with scrambled control siRNA (SC)
T5 sequence: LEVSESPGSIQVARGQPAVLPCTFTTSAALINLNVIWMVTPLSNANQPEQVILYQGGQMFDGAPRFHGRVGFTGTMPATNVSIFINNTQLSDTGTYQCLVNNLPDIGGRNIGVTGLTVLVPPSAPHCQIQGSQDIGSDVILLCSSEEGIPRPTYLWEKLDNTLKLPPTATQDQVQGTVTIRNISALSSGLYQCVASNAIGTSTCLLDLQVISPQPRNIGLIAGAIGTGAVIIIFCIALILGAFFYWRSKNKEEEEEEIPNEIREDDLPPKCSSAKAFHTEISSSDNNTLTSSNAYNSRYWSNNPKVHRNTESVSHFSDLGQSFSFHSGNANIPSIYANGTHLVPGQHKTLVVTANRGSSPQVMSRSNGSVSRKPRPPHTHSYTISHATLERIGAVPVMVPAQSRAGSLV

[6] = biological target: T5, human IGSF11 (VSIG3) expressed on cells; test: FACS, DMS 273 cells with IGSF11 siRNA (KD, knock-down control)
[7] = biological target: T1, extracellular domain (ECD) of human …; test: BLI
[8] = biological target: T5, human IGSF11 (VSIG3) expressed on cells; test: FACS, M579-A2-luc cells with IGSF11 siRNA (KD, knock-down control)
[9] = biological target: T5, human IGSF11 (VSIG3) expressed on cells; test: IgG1 FACS HEK-OE
[10] = biological target: T5, human IGSF11 (VSIG3) expressed on cells; test: FACS, M579-A2-luc cells with scrambled control siRNA (SC)
[11] = biological target: T6, ECD of murine IGSF11, recombinant biotinylated (mouse, UniProt P0C673 23-240); test: Fab ELISA
T6 construct: whole entry named; also called Mouse IGSF11
T6 sequence: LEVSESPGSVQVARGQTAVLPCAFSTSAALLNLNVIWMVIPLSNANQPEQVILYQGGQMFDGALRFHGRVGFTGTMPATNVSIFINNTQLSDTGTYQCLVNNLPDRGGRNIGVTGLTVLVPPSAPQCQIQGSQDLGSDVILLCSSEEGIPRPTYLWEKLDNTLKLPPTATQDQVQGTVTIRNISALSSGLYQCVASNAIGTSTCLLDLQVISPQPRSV
Method: (§1) In order to identify IGSF11-specific binding ABPs, monoclonal Fabs expressed from E. coli were generated from the enriched set of anti-IGFS11 antibody-expressing phage. After bacterial lysis, the Fabs were tested for their binding properties and cross-reactivity profile on recombinant ECD-IGSF11 (human, mouse and cynomolgus monkey) by standard ELISA. Briefly, biotinylated recombinant ECD-IGSF11 from human, mouse, or cynomolgus monkey were immobilized at 2 ug/mL on a streptavidin-coated 384-well Maxisorp plate. The surface was blocked with 2% (w/v) skim milk powder in PBST. After three wash cycles with PBST, a bacterial lysate of each of the anti-IGSF11 Fabs in 2% (w/v) skim milk powder was applied to the immobilized IGSF11 and incubated for 1 h. After removing all unbound Fab by 3 wash cycles with PBST, bound Fab antibodies were detected with a goat anti-human Fab antibody conjugated with horseradish peroxidase. After three wash cycles with PBST the ELISA was developed with TMB substrate.

[12] = biological target: T1, extracellular domain (ECD) of human …; test: Fab ELISA
Method: as §1

[13] = biological target: Streptavidin (UniProt P22629 37-163, limits assumed); test: Fab ELISA
Chain of Streptavidin (P22629 37-163 limits assumed): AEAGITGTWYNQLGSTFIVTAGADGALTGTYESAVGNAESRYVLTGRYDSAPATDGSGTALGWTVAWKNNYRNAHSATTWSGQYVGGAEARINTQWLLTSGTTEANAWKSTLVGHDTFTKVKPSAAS
Method: as §1

[14] = biological target: T7, ECD of cynomolgus monkey IGSF11, recombinant biotinylated (cynomolgus monkey, UniProt Q5DX21 23-241 (human entry)); test: Fab ELISA
T7 construct: whole entry named
T7 chain: T1 sequence with P17T, I83V, A185T, S187T
Method: as §1

[15] = biological target: T5, human IGSF11 (VSIG3) expressed on cells; test: IgG FACS Colo741
From the text: (§2) Unbound antibodies were removed by washing the cells three time with FACS buffer. Bound antibodies were detected with a mouse anti-human IgG antibody conjugated with AlexaFluor647.

[16] = biological target: T8, murine IGSF11 expressed on cells (mouse, UniProt P0C673 23-428); test: IgG FACS MC38-IGSF11
T8 construct: MC38-IGSF11, CT26-IGSF11, MC38-wt (naturally expresses murine IGSF11)
T8 sequence: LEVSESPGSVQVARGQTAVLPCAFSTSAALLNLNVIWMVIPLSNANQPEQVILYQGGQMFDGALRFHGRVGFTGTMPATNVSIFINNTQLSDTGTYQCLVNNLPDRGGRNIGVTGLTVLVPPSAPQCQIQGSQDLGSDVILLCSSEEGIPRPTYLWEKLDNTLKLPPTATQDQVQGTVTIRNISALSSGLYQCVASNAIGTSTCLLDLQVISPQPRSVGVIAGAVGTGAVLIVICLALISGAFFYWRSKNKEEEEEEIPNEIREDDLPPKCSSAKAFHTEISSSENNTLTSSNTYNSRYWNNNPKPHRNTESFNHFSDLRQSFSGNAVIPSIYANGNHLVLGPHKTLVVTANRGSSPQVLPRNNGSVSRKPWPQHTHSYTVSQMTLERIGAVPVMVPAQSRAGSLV
From the text: as §2

[17] = biological target: T5, human IGSF11 (VSIG3) expressed on cells; test: IgG FACS MDA-MB-231-IGSF11
From the text: as §2

[18] = biological target: T8, murine IGSF11 expressed on cells; test: IgG FACS CT26-IGSF11
From the text: as §2

[19] = biological target: T2, IgC2 domain of human IGSF11 fused to …; test: IgG ELISA; remark: listed apart in the source
Method: (§3) Binding of IgG antibodies to each of the full-length ECD of IGSF11, to the IgV domain of IGSF11 and to the IgC2 domain of IGSF11, was tested in the ELISA assay as follows: briefly, recombinant domains of Fc-fusion IGSF11 proteins were coated at 2 ug/mL on a 384-well Maxisorp plate. The surface was blocked with 2% (w/v) skim milk powder in PBST. […] After removing all unbound antibodies by 3 wash cycles with PBST, bound IgG ABPs were detected with a goat anti-human IgG antibody conjugated with horseradish peroxidase. After three wash cycles with PBST the ELISA was developed with TMB substrate.

[20] = biological target: T3, full-length ECD of human IGSF11 fused …; test: IgG ELISA; remark: listed apart in the source
Method: as §3

[21] = biological target: T1, extracellular domain (ECD) of human …; test: BLI apparent affinity, IgG on AHC sensor, IGSF11 ECD 100 nM
From the text: Briefly, various APBs were loaded on an optical biosensor via a commercially available Capture System (AHC sensors, ForteBio).

[22] = biological target: T4, human IGSF11 (VSIG3) ECD, His-tagged; test: IgG1 ELISA EC50 0.02-0.05 nM
[23] = biological target: T9, IgV domain of human IGSF11 fused to murine IgG2a Fc (human, UniProt Q5DX21 23-143); test: IgG ELISA;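 further: ELISA binding of IgG antibodies to plate-coated IGSF11 Fc-fusion proteins (full-length ECD, IgV or IgC2 domain), detected via HRP-labelled anti-human IgG with TMB development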
T9 construct: not shown: murine IgG2a Fc-region
T9 sequence: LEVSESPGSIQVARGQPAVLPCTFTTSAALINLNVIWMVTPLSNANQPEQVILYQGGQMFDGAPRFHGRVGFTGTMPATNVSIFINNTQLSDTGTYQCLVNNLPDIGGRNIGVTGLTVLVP

B1: A-011 (IgG1 format) (antibody, V domains shown)
VH: QVQLVESGGGVVQPGRSLRLSCAASGFTFSSYAMHWVRQAPGKGLEWVAVISYDGSNKYYADSVKGRFTISRDNSKNTLYLQMNSLRAEDTAVYYCAEGGALNYYGMDVWGQGTTVTVSS
VL: SSELTQDPGVSVALGQTVRITCQGDSLRHFYATWYQQKPGQAPILVIYGKNNRPSGIPDRFSGSSSEDTASLTITGAQAEDEADYYCQSRDPRNNHLIFGGGTKLIVL
notes: human IgG1 format
Kd [1]: 250 to 500 nM
EC50 [2]: < 1 nM
EC50 [3]: < 1 nM
EC50 [4]: < 0.02 nM
% binding (FACS heat-map) [5]: 6.95%
% binding (FACS heat-map) [6]: 3.4%
Kd [7]: 10 to 20 nM
% binding (FACS heat-map) [8]: 2.41%
EC50 [9]: > 50 nM
% binding (FACS heat-map) [10]: 2.05%

B2: C-019 (Fab format) (Fab, V domains shown)
VH: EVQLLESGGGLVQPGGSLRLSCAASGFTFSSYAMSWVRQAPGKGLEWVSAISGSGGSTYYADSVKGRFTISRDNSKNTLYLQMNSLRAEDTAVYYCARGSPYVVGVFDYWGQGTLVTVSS
VL: DIQMTQSPSSLSASVGDRVTITCRASQSISSYLNWYQQKPGKAPKLLIYAASSLQSGVPSRFSGSGSGTDFTLTISSLQPEDFATYYCQQWQHEPPYTFGQGTKVEIK
notes: Fab from E. coli lysate
A450 [11]: < 1
A450 [12]: < 1
A450 [13]: < 0.1
A450 [14]: < 1

B3: D-115 (IgG format) (antibody, V domains shown)
VH: EVQLLESGGGLVQPGGSLRLSCAASGFTFQFSALSWVRQAPGKGLEWVSAISYGGGSKYYADSVKGRFTISRDNSKNTLYLQMNSLRAEDTAVYYCARDSRDAYGVAFDLWGQGTMVTVSS
VL: ASVLTQPPSVSAAPGQKVTISCSGSSSNIGNNYVSWYQQLPGTAPKLLIYDNNKRPSGIPDRFSGSKSGTSATLGITGLQAEDEADYYCQSYESRLFVFGGGTKLTVL
EC50 [15]: < 0.1 nM

B4: C-003 (IgG1 format) (antibody, V domains shown)
VH: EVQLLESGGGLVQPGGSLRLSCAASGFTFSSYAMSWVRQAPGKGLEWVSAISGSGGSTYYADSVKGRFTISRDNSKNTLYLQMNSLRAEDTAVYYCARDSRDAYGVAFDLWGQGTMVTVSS
VL: B3 VL with Q90L, E93T, R95S, L96Q, F97Y
EC50 [16]: < 20 nM
EC50 [17]: 10 to 15 nM
EC50 [18]: < 20 nM
EC50 [19]: < 1 nM
EC50 [20]: < 1 nM
Kd [21]: < 15 nM

B5: A-026 (IgG1 format) (antibody, V domains shown)
VH: QVQLQESGPGLVKPSQTLSLTCTVSGGSISSGGYYWSWIRQHPGKGLEWIGYIYYSGSTYYNPSLKSRVTISVDTSKNQFSLKLSSVTAADTAVYYCASWSLGTSNHGWFDPWGQGTLVTVSS
VL: QSVLTQPPSASGTPGQRVTISCSGSSSNIGSNTVNWYQQLPGTAPKLLISDNNNRPSGVPDRFSGSKSGTSASLAITGLQAEDEADYYCQSYDSNLSGWVFGGGTKLTVL
notes: human IgG1 format
Kd [1]: > 500 nM
EC50 [2]: 1 to 20 nM
EC50 [3]: 1 to 20 nM
EC50 [22]: 0.02 to 0.05 nM
% binding (FACS heat-map) [5]: 64.4%
% binding (FACS heat-map) [6]: 3.81%
Kd [7]: 20 to 30 nM
% binding (FACS heat-map) [8]: 2.01%
EC50 [9]: > 50 nM
% binding (FACS heat-map) [10]: 11.6%

B6: C-007 (IgG1 format) (antibody, V domains shown)
VH: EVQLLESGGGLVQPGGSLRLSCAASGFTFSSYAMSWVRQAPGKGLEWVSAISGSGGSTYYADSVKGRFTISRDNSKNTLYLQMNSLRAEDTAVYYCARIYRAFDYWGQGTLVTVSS
VL: ASVLTQPPSVSAAPGQKVTISCSGSSSNIGNNYVSWYQQLPGTAPKLLIYDNNKRPSGIPDRFSGSKSGTSATLGITGLQAEDEADYYCQLYEEEHSTWVFGGGTKLTVL
EC50 [16]: < 20 nM
EC50 [17]: < 10 nM
EC50 [18]: 20 to 50 nM
EC50 [23]: < 1 nM
EC50 [20]: < 1 nM
Kd [21]: < 125 nM

B7: C-004 (Fab format) (Fab, V domains shown)
VH: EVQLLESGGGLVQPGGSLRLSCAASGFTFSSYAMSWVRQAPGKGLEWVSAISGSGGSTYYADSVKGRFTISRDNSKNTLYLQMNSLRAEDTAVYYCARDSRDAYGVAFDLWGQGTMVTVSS
VL: B6 VL with Q90L, L91T, Y92W, E93T, E94G, E95A, H96G, S97R, T98I, W99F
notes: Fab from E. coli lysate
A450 [11]: < 1
A450 [12]: < 1
A450 [13]: < 0.1
A450 [14]: < 1

B8: C-001 (IgG1 format) (antibody, V domains shown)
VH: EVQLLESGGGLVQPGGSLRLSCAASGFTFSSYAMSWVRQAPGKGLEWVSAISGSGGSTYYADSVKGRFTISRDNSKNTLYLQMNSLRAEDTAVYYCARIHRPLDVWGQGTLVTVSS
VL: B6 VL with Q90G, L91S, Y92W, E93L, H96R, T98Q, W99Y
EC50 [16]: 50 to 100 nM
EC50 [17]: < 10 nM
EC50 [18]: 20 to 50 nM
EC50 [23]: < 1 nM
EC50 [20]: < 1 nM
Kd [21]: < 75 nM

B9: C-018 (Fab format) (Fab, V domains shown)
VH: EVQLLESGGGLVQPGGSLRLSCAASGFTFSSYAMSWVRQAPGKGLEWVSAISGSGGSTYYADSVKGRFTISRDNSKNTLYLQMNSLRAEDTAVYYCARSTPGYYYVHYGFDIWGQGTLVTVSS
VL: SYELTQPPSVSVSPGQTASITCSGDKLGDKYASWYQQKPGQSPVLVIYQDSKRPSGIPERFSGSNSGNTATLTISGTQAEDEADYYCQAWSTSTHSWVFGGGTKLTVL
notes: Fab from E. coli lysate
A450 [11]: < 1
A450 [12]: < 1
A450 [13]: < 0.1
A450 [14]: < 1
